According to the supplement of paper PMC10126150:
± gives the standard deviation of the averaged measurements.

tested on: ATP; test: switch fluorescence ratio, 500 uM ATP over buffer (Cy3 cluster intensity, sum of 5 cycles each) (fold (ratio)); higher = stronger signal-on switching upon ATP binding; sequences stand for … in TCGTCGGCAGCGTCAGATGTGTATAAGAGACAGTTTTTTTTTTTTTTTTTTTTTTTTT…TC; details: aptamer strand: ATP DNA aptamer (quencher-CACCTGGGGGAGTATTGCGGAGGAAGG + anchor), 100 nM annealed; ATP concentration: 500 uM
Outline: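 Values give the fluorescence ratio for each switch-domain sequence, averaged from per-cluster ratios of summed target-cycle to summed buffer-cycle Cy3 intensity. The Cy3-labelled switching-strand clusters sat on a modified Illumina MiSeq flow-cell, were annealed to 100 nM quencher-labelled ATP aptamer, and were imaged in selection buffer, then after 15 min with 500 uM ATP at 22 °C. Five cycles ran with NaOH stripping and re-annealing between them, and clusters outside 100-1000 RFU were excluded.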
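Note: ATP exposure 15 min at 22 °C before imaging.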

| Sequence | switch fluorescence ratio |
| --- | --- |
| TTTCGGGGCA | 1.02 ± 0.034 |
| TTAACGGAGA | 1.039 ± 0.0084 |
| ACGGTTAGTC | 1.04 ± 0.016 |
| CAAAAAGCAC | 1.06 ± 0.036 |
| GGCAATGGTT | 1.1 ± 0.11 |
| TTTTGTCAGG | 0.993 ± 0.0079 |
| AGAGGCTTAA | 1.01 ± 0.011 |
| TTAATCGGGG | 1.05 ± 0.077 |
| ACGGTGACTA | 1.1 ± 0.023 |
| TGCTAGGCG | 1.02 ± 0.032 |
| GACGTACTCA | 1.51 ± 0.17 |
| TTTGTGGGCC | 1.03 ± 0.093 |
| TTAAGAGGTT | 0.9708 ± 0.0065 |
| GGATTGGGGT | 0.986 ± 0.04 |
| TATTTGTTTG | 0.984 ± 0.03 |
| ATATAGTAAT | 0.9842 ± 0.0078 |
| TTTCTGATTT | 0.983 ± 0.022 |
| TTAAGGGGGC | 0.969 ± 0.042 |
| GTTATACGTA | 1.03 ± 0.019 |
| GTGGCTTGGG | 1.02 ± 0.018 |
| TTAGGGTCGT | 1.01 ± 0.018 |
| GTTGTGGTTT | 0.975 ± 0.034 |
| GATTGATTGT | 0.9867 ± 0.0061 |
| TGAGTGGCTC | 0.9793 ± 0.0053 |
| CACAGTGAGT | 0.997 ± 0.021 |

| Sequence | switch fluorescence ratio |
| --- | --- |
| GATATAGGGG | 1 ± 0.034 |
| TAGTTTGTTA | 0.987 ± 0.027 |
| CAGACCGGTT | 0.996 ± 0.035 |
| ATATATTGTA | 1.001 ± 0.0059 |
| ACTTGTAGGC | 1.01 ± 0.05 |
| CATCTCTTGC | 1.07 ± 0.036 |
| CGGAAGCATG | 1.13 ± 0.047 |
| AGGTGGTTG | 0.998 ± 0.028 |
| TCATTCGTCG | 0.9712 ± 0.0031 |
| GGAAATGAAT | 1.02 ± 0.029 |
| ACCACCAGAA | 1.13 ± 0.02 |
| TACTTCTCCA | 1.04 ± 0.016 |
| TTCAAGGGTG | 1.11 ± 0.024 |
| CCCCTTAGCG | 1.09 ± 0.0067 |
| AAACGAATGG | 0.981 ± 0.022 |
| GGAATCATTT | 0.972 ± 0.015 |
| GGAGATTTTT | 0.977 ± 0.044 |
| TGTTGTGGTC | 0.9804 ± 0.0042 |
| AATAAACAGC | 1.006 ± 0.0078 |
| CCCCGTAGTC | 4.6 ± 0.3 |
| CTGGGAGGGA | 0.991 ± 0.035 |
| CTACCGGATT | 1.07 ± 0.012 |
| TAAAGCGGTG | 0.992 ± 0.027 |
| ATCAGTGATG | 1 ± 0.046 |
| TCGGGGCGG | 0.992 ± 0.011 |

| Sequence | switch fluorescence ratio |
| --- | --- |
| AGGGTAGTCC | 0.986 ± 0.03 |
| ATGTCAGTGT | 0.985 ± 0.074 |
| TTTGCTGGAA | 0.995 ± 0.015 |
| TCAAGGGTTC | 1.03 ± 0.064 |
| CCATGCTTGT | 1.03 ± 0.035 |
| TAATTGCCTT | 1.02 ± 0.017 |
| AGTGCAGAGA | 0.989 ± 0.028 |
| TAAGAAAATT | 0.993 ± 0.023 |
| TAGTTTTTTC | 0.99 ± 0.021 |
| CTAGACCAGG | 1.01 ± 0.014 |
| TTAGGTATTA | 0.9912 ± 0.0036 |
| CGAGACAGGA | 1.007 ± 0.0017 |
| AGTTAACTCA | 1.013 ± 0.0056 |
| TTTTGGAAAA | 1.02 ± 0.017 |
| CAGGTTTGG | 0.982 ± 0.014 |
| GTGATGGGGA | 0.9895 ± 0.0095 |
| TGGCAGGGTC | 0.9774 ± 0.0077 |
| TTCTATGTTA | 0.997 ± 0.014 |
| GGAACGGGCT | 1 ± 0.021 |
| AGTTTCTTTT | 0.994 ± 0.0026 |
| CCGGGGGGTG | 1.07 ± 0.066 |
| ATTATTAACG | 0.993 ± 0.033 |
| GGTCCAAAAG | 1.008 ± 0.0075 |
| ACTTTATTAG | 1.0103 ± 0.00038 |
| TGCATGTACC | 1.21 ± 0.051 |

| Sequence | switch fluorescence ratio |
| --- | --- |
| GTGCCCAACG | 1.03 ± 0.03 |
| GCGGTAGTTT | 0.9974 ± 0.0066 |
| TAATCAGGAA | 1.015 ± 0.0046 |
| GTGGTATGTC | 1.01 ± 0.07 |
| TATAAAATGT | 0.993 ± 0.036 |
| ATGTACGCGT | 0.995 ± 0.024 |
| TATCGCTTGG | 1 ± 0.018 |
| ACTATTGGTG | 1.12 ± 0.035 |
| AGGGTTGGTG | 1.04 ± 0.077 |
| TAGTGTAGGC | 1.03 ± 0.014 |
| TAAACGGGAC | 1.11 ± 0.019 |
| ATGGGGTTCT | 0.992 ± 0.022 |
| TTGTGCGGAC | 1.01 ± 0.04 |
| GGACAAACTC | 1.04 ± 0.036 |
| ACGTAGGGGG | 0.988 ± 0.032 |
| AATCGGGGGG | 0.974 ± 0.013 |
| CATGTACGTG | 1.0359 ± 9.4e-05 |
| AGCAATGTCT | 1.26 ± 0.065 |
| TTGCTAAGCG | 1.02 ± 0.012 |
| GTTTCGAGGG | 0.974 ± 0.037 |
| AGGGGAATTT | 0.992 ± 0.03 |
| CTGAGGGGCT | 0.982 ± 0.02 |
| TTAGGCCCCG | 1.01 ± 0.04 |
| TCGGGGGGGC | 1.01 ± 0.072 |
| AGGGTTGGAA | 0.967 ± 0.011 |
